Earlier results on two substances are cited in article PMC3894449.

Data set [1] has as its target IL-2Ralpha (Homo sapiens) (UniProt P01589).
For data set [2], the target named is IL-15Ralpha (Homo sapiens) (UniProt Q13261).
UniProt Q13261, sequence (Q13261 31-205): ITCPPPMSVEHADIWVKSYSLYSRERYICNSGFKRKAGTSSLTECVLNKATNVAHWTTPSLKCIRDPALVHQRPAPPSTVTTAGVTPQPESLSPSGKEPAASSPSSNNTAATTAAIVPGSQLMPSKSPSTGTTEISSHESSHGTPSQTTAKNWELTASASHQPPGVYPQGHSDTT

UniProt P01589, sequence (P01589 22-240): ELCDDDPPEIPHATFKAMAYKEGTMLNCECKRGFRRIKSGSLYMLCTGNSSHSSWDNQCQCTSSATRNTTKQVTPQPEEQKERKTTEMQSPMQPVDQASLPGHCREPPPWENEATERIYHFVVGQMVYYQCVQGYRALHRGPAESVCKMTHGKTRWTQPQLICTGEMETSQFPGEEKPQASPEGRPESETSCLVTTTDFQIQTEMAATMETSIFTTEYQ

For IL-2 (from UniProt P60568), the Kd in data set [1] was 20 nM.
IL-15 (from UniProt P40933): the Kd in data set [2] was 0.05 nM.

A word on the Kd: it is the concentration at which binding is half-saturated.
